# From publication PMC2767389
# Molecular target: C1-100, C-terminally truncated C protein of HPIV3, C-terminally flag-tagged (human parainfluenza virus type 3)
# Assay: co-IP
substance,measurement,value
"HPIV3 L protein (viral RNA polymerase), non-tagged (from UniProt P12577 1-2233) (enzyme)",L/C ratio,0.03
